The target in test [1] is T1, poly-histidine tagged HPTP-β extracellular domain (ECD) 1/2 (human, UniProt P23467 23-730, limits assumed).
T1 construct: domain: extracellular domain (ECD) 1/2; Captured on the Biacore chip through goat anti-His antibody; also called His-tagged ligand HPTP-β 1/2 ECD; not shown: poly-histidine tag
T1 sequence (looked up): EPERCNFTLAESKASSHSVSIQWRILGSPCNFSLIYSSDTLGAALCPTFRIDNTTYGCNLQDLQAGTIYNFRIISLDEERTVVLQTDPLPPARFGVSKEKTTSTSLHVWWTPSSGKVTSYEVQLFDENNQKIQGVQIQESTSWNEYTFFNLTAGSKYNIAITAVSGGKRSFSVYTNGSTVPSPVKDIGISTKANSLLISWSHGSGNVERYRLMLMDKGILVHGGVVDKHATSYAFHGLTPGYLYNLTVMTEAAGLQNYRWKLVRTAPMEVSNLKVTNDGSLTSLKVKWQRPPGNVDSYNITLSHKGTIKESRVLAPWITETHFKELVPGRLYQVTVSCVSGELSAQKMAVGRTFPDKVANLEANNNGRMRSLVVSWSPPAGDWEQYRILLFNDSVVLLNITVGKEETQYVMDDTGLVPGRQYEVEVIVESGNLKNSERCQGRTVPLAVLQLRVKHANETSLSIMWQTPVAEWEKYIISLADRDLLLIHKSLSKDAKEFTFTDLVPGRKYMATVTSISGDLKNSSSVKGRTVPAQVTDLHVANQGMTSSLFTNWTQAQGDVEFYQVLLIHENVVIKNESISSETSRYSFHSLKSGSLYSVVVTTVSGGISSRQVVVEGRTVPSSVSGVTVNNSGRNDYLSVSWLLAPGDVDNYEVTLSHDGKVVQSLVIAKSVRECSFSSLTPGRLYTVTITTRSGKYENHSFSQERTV
Put plainly: Biacore SPR, scouting at 10 nM analyte; His-tagged HPTP-β 1/2 ECD captured by anti-His, antibody as analyte. The protocol: (§1) The assay buffer contained 10 mM HEPES buffer (pH 7.4), 150 mM NaCl, 3 mM EDTA, and 0.05% P20 (polyoxyethylenesorbitan). […] The conjugation buffer contained 10 mM sodium acetate buffer (pH 5). A flow rate of 5 μL/minute was used for capturing ligand. A flow rate of 30 μL/minute was used for kinetic analysis.
(§2) For analysis of binding of antibodies to HPTP-β, poly-histidine tagged HPTP-β extracellular domain (ECD) 1/2 was immobilized on a chip surface via anti-His antibodies. Goat anti-His antibody was first immobilized on the surface of the chip by direct immobilization using EDC/NHS (N-ethyl-N′-(3-dimethyl aminopropyl carbodiimide)/N-hydroxy succinamide) coupling chemistry on flow cell 2 of the CM5 (Carboxymethylated dextran coated) chip. Unoccupied sites were blocked with 1M ethanolamine. The His-tagged ligand HPTP-β 1/2 ECD was captured at a response unit (RU) of 50. The analyte (antibody) was flowed over the chip at a single analyte concentration at a time. The binding of analyte to the ligand was monitored in real time to obtain on (kₐ) and off (kd) rates. The equilibrium constant (KD) was calculated from the observed kₐ and kd.
(§3) Chi square analysis was carried out between the actual sensorgram and the sensorgram generated from the BIAnalysis software to confirm the accuracy of the analysis; values of 1-2 were considered accurate and below 1 highly accurate.

A further test addresses T2, VEGF (UniProt P15692-4 27-191, limits assumed).
T2 construct: also called vascular endothelial growth factor
Nature of the test: Biacore SPR, scouting; antibody immobilised on CM5 chip, VEGF as analyte. The protocol: For analysis of binding of the antibodies to VEGF, the antibodies were immobilized on the surface of the chip by direct immobilization using EDC/NHS coupling chemistry on flow cell 2 of the CM5 chip. Unoccupied sites were blocked with 1M ethanolamine. The analyte (VEGF) was flowed over the chip at a single analyte concentration at a time. The binding of analyte to the ligand was monitored in real time to obtain on (kₐ) and off (kd) rates. The equilibrium constant (KD) was calculated from the observed kₐ and kd.
as §3

Test [2] concerns the target T1, poly-histidine tagged HPTP-β …. Nature of the test: Biacore SPR, full kinetics at 0-10 nM analyte; His-tagged HPTP-β 1/2 ECD captured by anti-His, antibody as analyte. The protocol: as §1, §2
Chi square analysis was carried out between the actual sensorgram and the sensorgram generated from the BNAnalysis software to confirm the accuracy of the analysis; values of 1-2 were considered accurate and below 1 highly accurate.

T2 sequence (P15692 other isoform, or with tags, fused parts or gaps limits assumed): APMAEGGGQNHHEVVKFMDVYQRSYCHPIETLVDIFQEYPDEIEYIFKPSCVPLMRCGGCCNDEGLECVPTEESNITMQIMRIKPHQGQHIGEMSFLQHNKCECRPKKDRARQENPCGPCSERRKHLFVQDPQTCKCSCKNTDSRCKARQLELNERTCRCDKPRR

B1: HC2:LC1 (antibody, human IgG4 S228P, kappa, V domains shown)
VH: EVQLVESGGGLVQPGGSLRLSCAASGFTFNANAMNWVRQAPGKGLEWVGRIRTKSNNYATYYAGSVKDRFTISRDDSKNSLYLQMNSLKTEDTAVYYCVRDYYGSSAWITYWGQGTLVTVSS
VL: DVVMTQSPSFLSASVGDRVTITCKASQHVGTAVAWYQQRPGKAPKLLIYWASTRHTGVPSRFSGSGSGTEFTLTISSLQPEDFATYFCQQYSSYPFTFGGGTKLEIKR
notes: Human IgG4 (S228P) heavy chain HC2 (VH2) and human kappa light chain LC1 (VL1); also called humanized monoclonal antibody specific for HPTP-β
As to B1, the Kd in test [1] is 0.0732 nM; in test [2] it was 0.121 nM. Besides, the binding result with VEGF was “no binding (tested: 10 nM of analyte)”.

For the origin of these results see patent US20240174740A1 (EYEPOINT PHARMACEUTICALS, published 2024).
